# Reference: patent publication US20100260668A1 (published 2010)
# Target: T1, DLL4 ECD/His tag (R&D 1506-D4-050) (UniProt Q9NR61 27-529)
# T1 construct: extracellular domain; Bought antigen coated on the ELISA plate; not shown: His tag
# Experiment: direct bind ELISA, DLL4 on plate; DLL4 VD C-term.; HC Long, LC Long
row,Binder,EC50 [nM]
1,"DVD470 (bispecific antibody, human IgG1, kappa, DVD-Ig; HC long, LC long linker; also called DVD470H; DVD470L) heavy: not shown light: DIQMTQSPSSLSASVGDRVTITCSASQDISNYLNWYQQKPGKAPKVLIYFTSSLHSGVPSRFSGSGSGTDFTLTISSLQPEDFATYYCQQYSTVPWTFGQGTKVEIKRTVAAPSVFIFPPDIQMTQSPSSLSASVGDRVTITCRASQDVSTAVAWYQQKPGKAPKLLIYSASFLYSGVPSRFSGSGSGTDFTLTISSLQPEDFATTYYCQQSYTGTVTFGQGTKVEIKRTVAAPSVFIFPPSDEQLKSGTASVVCLLNNFYPREAKVQWKVDNALQSGNSQESVTEQDSKDSTYSLSSTLTLSKADYEKHKVYACEVTHQGLSSPVTKSFNRGEC",0.19
2,"DVD452 (bispecific antibody, human IgG1, kappa, L234A L235A, DVD-Ig; outer AB071 (VEGF), inner AB069 (DLL4); HC long, LC long linker; also called DVD452H; DVD452L) heavy: not shown light: DIQMTQSPSSLSASVGDRVTITCRASQVIRRSLAWYQQKPGKAPKLLIYAASNLASGVPSRFSGSGSGTDFTLTISSLQPEDFATYYCQQSNTSPLTFGQGTKVEIKRTVAAPSVFIFPPDIVMTQSPDSLAVSLGERATISCRASESVDNYGISFMKWFQQKPGQPPKLLIYAASNQGSGVPDRFSGSGSGTDFTLTISSLQAEDVAVYYCQQSKEVPWTFGGGTKVEIKRTVAAPSVFIFPPSDEQLKSGTASVVCLLNNFYPREAKVQWKVDNALQSGNSQESVTEQDSKDSTYSLSSTLTLSKADYEKHKVYACEVTHQGLSSPVTKSFNRGEC",0.34
3,"DVD494 (bispecific antibody, human IgG1, kappa, DVD-Ig; HC long, LC long linker; also called DVD494H; DVD494L) heavy: not shown light: DIQMTQSPSSLSASVGDRVTITCSASQDISNYLNWYQQKPGKAPKVLIYFTSSLHSGVPSRFSGSGSGTDFTLTISSLQPEDFATYYCQQYSTVPWTFGQGTKVEIKRTVAAPSVFIFPPDIQMTQSSSYLSVSLGGRVTITCKASDHINNWLAWYQQKPGNAPRLLISGATSLETGVPSRFSGSGSGKDYTLSITSLQTEDVATYYCQQYWSIPLTFGAGTKLELKRTVAAPSVFIFPPSDEQLKSGTASVVCLLNNFYPREAKVQWKVDNALQSGNSQESVTEQDSKDSTYSLSSTLTLSKADYEKHKVYACEVTHQGLSSPVTKSFNRGEC",39.5
4,"DVD518 (bispecific antibody, human IgG1, kappa, lambda, DVD-Ig; HC long, LC long linker; also called DVD518H; DVD518L) heavy: not shown light: DIQMTQSPSSLSASVGDRVTITCSASQDISNYLNWYQQKPGKAPKVLIYFTSSLHSGVPSRFSGSGSGTDFTLTISSLQPEDFATYYCQQYSTVPWTFGQGTKVEIKRTVAAPSVFIFPPQAVVTQESALTTSPGETVTLTCRSSTGAVTTSNYANWVQEKPDHLFTGLIGGTNNRAPGVPARFSGSLIGDKAALTITGAQTEDEAIYFCALWYSNHWVFGGGTKLTVLGQPKAAPSVTLFPPSSEELQANKATLVCLISDFYPGAVTVAWKADSSPVKAGVETTTPSKQSNNKYAASSYLSLTPEQWKSHRSYSCQVTHEGSTVEKTVAPTECS",5.9
5,"DVD498 (bispecific antibody, human IgG1, kappa, DVD-Ig; outer AB071 (VEGF), inner AB072 (DLL4); HC long, LC long linker; also called DVD498H; DVD498L) heavy: not shown light: DIQMTQSPSSLSASVGDRVTITCRASQVIRRSLAWYQQKPGKAPKLLIYAASNLASGVPSRFSGSGSGTDFTLTISSLQPEDFATYYCQQSNTSPLTFGQGTKVEIKRTVAAPSVFIFPPDIQMTQSSSYLSVSLGGRVTITCKASDHINNWLAWYQQKPGNAPRLLISGATSLETGVPSRFSGSGSGKDYTLSITSLQTEDVATYYCQQYWSIPLTFGAGTKLELKRTVAAPSVFIFPPSDEQLKSGTASVVCLLNNFYPREAKVQWKVDNALQSGNSQESVTEQDSKDSTYSLSSTLTLSKADYEKHKVYACEVTHQGLSSPVTKSFNRGEC",0.45
6,"DVD474 (bispecific antibody, human IgG1, kappa, DVD-Ig; outer AB071 (VEGF), inner AB015 (DLL4); HC long, LC long linker; also called DVD474H; DVD474L) heavy: not shown light: DIQMTQSPSSLSASVGDRVTITCRASQVIRRSLAWYQQKPGKAPKLLIYAASNLASGVPSRFSGSGSGTDFTLTISSLQPEDFATYYCQQSNTSPLTFGQGTKVEIKRTVAAPSVFIFPPDIQMTQSPSSLSASVGDRVTITCRASQDVSTAVAWYQQKPGKAPKLLIYSASFLYSGVPSRFSGSGSGTDFTLTISSLQPEDFATTYYCQQSYTGTVTFGQGTKVEIKRTVAAPSVFIFPPSDEQLKSGTASVVCLLNNFYPREAKVQWKVDNALQSGNSQESVTEQDSKDSTYSLSSTLTLSKADYEKHKVYACEVTHQGLSSPVTKSFNRGEC",0.57
7,"DVD522 (bispecific antibody, human IgG1, kappa, lambda, L234A L235A, DVD-Ig; outer AB071 (VEGF), inner AB073 (DLL4); HC long, LC long linker; also called DVD522H; DVD522L) heavy: not shown light: DIQMTQSPSSLSASVGDRVTITCRASQVIRRSLAWYQQKPGKAPKLLIYAASNLASGVPSRFSGSGSGTDFTLTISSLQPEDFATYYCQQSNTSPLTFGQGTKVEIKRTVAAPSVFIFPPQAVVTQESALTTSPGETVTLTCRSSTGAVTTSNYANWVQEKPDHLFTGLIGGTNNRAPGVPARFSGSLIGDKAALTITGAQTEDEAIYFCALWYSNHWVFGGGTKLTVLGQPKAAPSVTLFPPSSEELQANKATLVCLISDFYPGAVTVAWKADSSPVKAGVETTTPSKQSNNKYAASSYLSLTPEQWKSHRSYSCQVTHEGSTVEKTVAPTECS",0.48

# Target: T1, DLL4 ECD/His tag (R&D 1506-D4-050)
# Experiment: direct bind ELISA, DLL4 on plate; DLL4 VD C-term.; HC Long, LC Short
row,Binder,EC50 [nM]
1,"DVD528 (bispecific antibody, human IgG1, lambda, DVD-Ig; outer AB071 (VEGF), inner AB073 (DLL4); HC long, LC short linker; also called DVD528H; DVD528L) heavy: not shown light: DIQMTQSPSSLSASVGDRVTITCRASQVIRRSLAWYQQKPGKAPKLLIYAASNLASGVPSRFSGSGSGTDFTLTISSLQPEDFATYYCQQSNTSPLTFGQGTKVEIKRTVAAPQAVVTQESALTTSPGETVTLTCRSSTGAVTTSNYANWVQEKPDHLFTGLIGGTNNRAPGVPARFSGSLIGDKAALTITGAQTEDEAIYFCALWYSNHWVFGGGTKLTVLGQPKAAPSVTLFPPSSEELQANKATLVCLISDFYPGAVTVAWKADSSPVKAGVETTTPSKQSNNKYAASSYLSLTPEQWKSHRSYSCQVTHEGSTVEKTVAPTECS",0.81
2,"DVD504 (bispecific antibody, human IgG1, kappa, DVD-Ig; outer AB071 (VEGF), inner AB072 (DLL4); HC long, LC short linker; also called DVD504H; DVD504L) heavy: not shown light: DIQMTQSPSSLSASVGDRVTITCRASQVIRRSLAWYQQKPGKAPKLLIYAASNLASGVPSRFSGSGSGTDFTLTISSLQPEDFATYYCQQSNTSPLTFGQGTKVEIKRTVAAPDIQMTQSSSYLSVSLGGRVTITCKASDHINNWLAWYQQKPGNAPRLLISGATSLETGVPSRFSGSGSGKDYTLSITSLQTEDVATYYCQQYWSIPLTFGAGTKLELKRTVAAPSVFIFPPSDEQLKSGTASVVCLLNNFYPREAKVQWKVDNALQSGNSQESVTEQDSKDSTYSLSSTLTLSKADYEKHKVYACEVTHQGLSSPVTKSFNRGEC",0.53
3,"DVD476 (bispecific antibody, human IgG1, kappa, DVD-Ig; HC long, LC short linker; also called DVD476H; DVD476L) heavy: not shown light: DIQMTQSPSSLSASVGDRVTITCSASQDISNYLNWYQQKPGKAPKVLIYFTSSLHSGVPSRFSGSGSGTDFTLTISSLQPEDFATYYCQQYSTVPWTFGQGTKVEIKRTVAAPDIQMTQSPSSLSASVGDRVTITCRASQDVSTAVAWYQQKPGKAPKLLIYSASFLYSGVPSRFSGSGSGTDFTLTISSLQPEDFATTYYCQQSYTGTVTFGQGTKVEIKRTVAAPSVFIFPPSDEQLKSGTASVVCLLNNFYPREAKVQWKVDNALQSGNSQESVTEQDSKDSTYSLSSTLTLSKADYEKHKVYACEVTHQGLSSPVTKSFNRGEC",0.3
4,"DVD500 (bispecific antibody, human IgG1, kappa, DVD-Ig; HC long, LC short linker; also called DVD500H; DVD500L) heavy: not shown light: DIQMTQSPSSLSASVGDRVTITCSASQDISNYLNWYQQKPGKAPKVLIYFTSSLHSGVPSRFSGSGSGTDFTLTISSLQPEDFATYYCQQYSTVPWTFGQGTKVEIKRTVAAPDIQMTQSSSYLSVSLGGRVTITCKASDHINNWLAWYQQKPGNAPRLLISGATSLETGVPSRFSGSGSGKDYTLSITSLQTEDVATYYCQQYWSIPLTFGAGTKLELKRTVAAPSVFIFPPSDEQLKSGTASVVCLLNNFYPREAKVQWKVDNALQSGNSQESVTEQDSKDSTYSLSSTLTLSKADYEKHKVYACEVTHQGLSSPVTKSFNRGEC",0.57
5,"DVD480 (bispecific antibody, human IgG1, kappa, DVD-Ig; outer AB071 (VEGF), inner AB015 (DLL4); HC long, LC short linker; also called DVD480H; DVD480L) heavy: not shown light: DIQMTQSPSSLSASVGDRVTITCRASQVIRRSLAWYQQKPGKAPKLLIYAASNLASGVPSRFSGSGSGTDFTLTISSLQPEDFATYYCQQSNTSPLTFGQGTKVEIKRTVAAPDIQMTQSPSSLSASVGDRVTITCRASQDVSTAVAWYQQKPGKAPKLLIYSASFLYSGVPSRFSGSGSGTDFTLTISSLQPEDFATTYYCQQSYTGTVTFGQGTKVEIKRTVAAPSVFIFPPSDEQLKSGTASVVCLLNNFYPREAKVQWKVDNALQSGNSQESVTEQDSKDSTYSLSSTLTLSKADYEKHKVYACEVTHQGLSSPVTKSFNRGEC",0.6
6,"DVD458 (bispecific antibody, human IgG1, kappa, L234A L235A, DVD-Ig; outer AB071 (VEGF), inner AB069 (DLL4); HC long, LC short linker; also called DVD458H; DVD458L) heavy: not shown light: DIQMTQSPSSLSASVGDRVTITCRASQVIRRSLAWYQQKPGKAPKLLIYAASNLASGVPSRFSGSGSGTDFTLTISSLQPEDFATYYCQQSNTSPLTFGQGTKVEIKRTVAAPDIVMTQSPDSLAVSLGERATISCRASESVDNYGISFMKWFQQKPGQPPKLLIYAASNQGSGVPDRFSGSGSGTDFTLTISSLQAEDVAVYYCQQSKEVPWTFGGGTKVEIKRTVAAPSVFIFPPSDEQLKSGTASVVCLLNNFYPREAKVQWKVDNALQSGNSQESVTEQDSKDSTYSLSSTLTLSKADYEKHKVYACEVTHQGLSSPVTKSFNRGEC",1.54
7,"DVD524 (bispecific antibody, human IgG1, lambda, DVD-Ig; HC long, LC short linker; also called DVD524H; DVD524L) heavy: not shown light: DIQMTQSPSSLSASVGDRVTITCSASQDISNYLNWYQQKPGKAPKVLIYFTSSLHSGVPSRFSGSGSGTDFTLTISSLQPEDFATYYCQQYSTVPWTFGQGTKVEIKRTVAAPQAVVTQESALTTSPGETVTLTCRSSTGAVTTSNYANWVQEKPDHLFTGLIGGTNNRAPGVPARFSGSLIGDKAALTITGAQTEDEAIYFCALWYSNHWVFGGGTKLTVLGQPKAAPSVTLFPPSSEELQANKATLVCLISDFYPGAVTVAWKADSSPVKAGVETTTPSKQSNNKYAASSYLSLTPEQWKSHRSYSCQVTHEGSTVEKTVAPTECS",0.22

# Target: T1, DLL4 ECD/His tag (R&D 1506-D4-050)
# Experiment: direct bind ELISA, DLL4 on plate; DLL4 VD C-term.; HC Short, LC Long
row,Binder,EC50 [nM]
1,"DVD482 (bispecific antibody, human IgG1, kappa, DVD-Ig; HC short, LC long linker; also called DVD482H; DVD482L) heavy: not shown light: DIQMTQSPSSLSASVGDRVTITCSASQDISNYLNWYQQKPGKAPKVLIYFTSSLHSGVPSRFSGSGSGTDFTLTISSLQPEDFATYYCQQYSTVPWTFGQGTKVEIKRTVAAPSVFIFPPDIQMTQSPSSLSASVGDRVTITCRASQDVSTAVAWYQQKPGKAPKLLIYSASFLYSGVPSRFSGSGSGTDFTLTISSLQPEDFATTYYCQQSYTGTVTFGQGTKVEIKRTVAAPSVFIFPPSDEQLKSGTASVVCLLNNFYPREAKVQWKVDNALQSGNSQESVTEQDSKDSTYSLSSTLTLSKADYEKHKVYACEVTHQGLSSPVTKSFNRGEC",0.36
2,"DVD530 (bispecific antibody, human IgG1, kappa, lambda, L234A L235A, DVD-Ig; HC short, LC long linker; also called DVD530H; DVD530L) heavy: not shown light: DIQMTQSPSSLSASVGDRVTITCSASQDISNYLNWYQQKPGKAPKVLIYFTSSLHSGVPSRFSGSGSGTDFTLTISSLQPEDFATYYCQQYSTVPWTFGQGTKVEIKRTVAAPSVFIFPPQAVVTQESALTTSPGETVTLTCRSSTGAVTTSNYANWVQEKPDHLFTGLIGGTNNRAPGVPARFSGSLIGDKAALTITGAQTEDEAIYFCALWYSNHWVFGGGTKLTVLGQPKAAPSVTLFPPSSEELQANKATLVCLISDFYPGAVTVAWKADSSPVKAGVETTTPSKQSNNKYAASSYLSLTPEQWKSHRSYSCQVTHEGSTVEKTVAPTECS",0.22
